One block for each binder: values may come before it.
Key:
[1] = target: T1, 人CD27 (稳定表达人CD27的细胞系 HEK::CD27 细胞) (human, UniProt P26842 20-260); assay: flow cytometry on HEK::CD27 cells, 10 ng and 100 ng antibody
T1 construct: whole, on cells; also called hCD27; 表达hCD27的细胞
T1 sequence (looked up): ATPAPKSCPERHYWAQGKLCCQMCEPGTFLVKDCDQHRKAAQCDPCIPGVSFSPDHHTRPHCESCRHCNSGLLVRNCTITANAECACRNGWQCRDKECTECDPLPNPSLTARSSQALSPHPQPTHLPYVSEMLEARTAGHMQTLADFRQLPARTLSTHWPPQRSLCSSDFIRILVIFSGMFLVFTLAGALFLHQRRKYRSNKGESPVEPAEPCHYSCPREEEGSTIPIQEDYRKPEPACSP

[2] = target: 人CD27 (稳定表达人CD27的细胞系 HEK::CD27 细胞) (human) (UniProt P26842); assay: flow cytometry on cells expressing human CD27
[3] = target: T2, 人CD27蛋白 (Cat: 10039-H03H, Sino Biological Inc.) (human, UniProt P26842 21-192); assay: SPR (Reichert4), human CD27 protein on chip, antibody as analyte, curve 1.25e-8
T2 construct: Bought protein coated on the SPR chip
T2 sequence (looked up): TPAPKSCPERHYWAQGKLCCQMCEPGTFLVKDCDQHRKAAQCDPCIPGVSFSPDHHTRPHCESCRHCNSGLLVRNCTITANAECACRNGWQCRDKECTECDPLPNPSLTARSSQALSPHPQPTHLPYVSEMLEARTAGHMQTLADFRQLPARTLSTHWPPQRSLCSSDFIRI

[4] = target: T2, 人CD27蛋白 (Cat: 10039-H03H, Sino …); assay: SPR (Reichert4), human CD27 protein on chip, antibody as analyte, curve printed 625e-9
[5] = target: T2, 人CD27蛋白 (Cat: 10039-H03H, Sino …); assay: SPR (Reichert4), human CD27 protein on chip, antibody as analyte, curve 2.50e-8
[6] = target: T2, 人CD27蛋白 (Cat: 10039-H03H, Sino …); assay: SPR (Reichert4), human CD27 protein on chip, antibody as analyte, curve 5.00e-8
[7] = target: T2, 人CD27蛋白 (Cat: 10039-H03H, Sino …); assay: SPR (Reichert4), human CD27 protein on chip, antibody as analyte, curve 6.25e-9

binding result [1]: binds
B1: Hu6D8-5 (antibody, human IgG4, V domains shown)
VH: EVQLVQSGAEVKKPGASVKVSCKASGYTFTNYGMNWVRQAPGQGLKWMGWINTNTGEPTYADDFKGRVTMTLDTSISTAYMELSRLRSDDTAVYYCAREGDGFDSWGQGTTVTVSS
VL: QIVLTQSPDFQSVTPKEKVTITCSATSSVNYMHWYQQKPDQSPKRWIYDTSRLASGVPSRFSGSGSGTDYTLTINSLEAEDAATYYCQQWNTNPWTFGGGTKVEIK

binding result [1]: binds
B2: Hu6D8-4 (antibody, human IgG4, V domains shown)
VH: EVQLVQSGAEVKKPGASVKVSCKASGYTFTNYGMNWVRQAPGQGLKWMGWINTNTGEPTYADDFKGRVTMTLDTSISTAYMELSRLRSDDTAVYYCAREGDGFDSWGQGTTVTVSS
VL: QFVLTQSPDFQSVTPKEKVTITCSATSSVNYMHWYQQKPDQSPKRLIYDTSRLASGVPSRFSGSGSGTDYTLTINSLEAEDAATYYCQQWNTNPWTFGGGTKVEIK

binding result [1]: binds
B3: Hu6D8-12 (antibody, human IgG4, V domains shown)
VH: EVQLVQSGAEVKKPGASVKVSCKASGYTFTNYGMNWVRQAPGQGLKWMGWINTNTGEPTYADDFKGRFTFTLDTSISTAYMELSRLRSDDTAVYYCAREGDGFDSWGQGTTVTVSS
VL: QFVLTQSPDFQSVTPKEKVTITCSATSSVNYMHWYQQKPDQSPKRWIYDTSRLASGVPSRFSGSGSGTDYTLTINSLEAEDAATYYCQQWNTNPWTFGGGTKVEIK

binding result [1]: binds
B4: Hu6D8-6 (antibody, human IgG4, V domains shown)
VH: EVQLVQSGAEVKKPGASVKVSCKASGYTFTNYGMNWVRQAPGQGLKWMGWINTNTGEPTYADDFKGRVTMTLDTSISTAYMELSRLRSDDTAVYYCAREGDGFDSWGQGTTVTVSS
VL: QFVLTQSPDFQSVTPKEKVTITCSATSSVNYMHWYQQKPDQSPKRWIYDTSRLASGVPSRFSGSGSGTDYTLTINSLEAEDAATYYCQQWNTNPWTFGGGTKVEIK

binding result [1]: binds
B5: Hu6D8-3 (antibody, human IgG4, V domains shown)
VH: EVQLVQSGAEVKKPGASVKVSCKASGYTFTNYGMNWVRQAPGQGLKWMGWINTNTGEPTYADDFKGRVTMTLDTSISTAYMELSRLRSDDTAVYYCAREGDGFDSWGQGTTVTVSS
VL: QIVLTQSPDFQSVTPKEKVTITCSATSSVNYMHWYQQKPDQSPKRLIYDTSRLASGVPSRFSGSGSGTDYTLTINSLEAEDAATYYCQQWNTNPWTFGGGTKVEIK

binding result [1]: binds
B6: Hu6D8-1 (antibody, human IgG4, V domains shown)
VH: EVQLVQSGAEVKKPGASVKVSCKASGYTFTNYGMNWVRQAPGQGLKWMGWINTNTGEPTYADDFKGRVTMTLDTSISTAYMELSRLRSDDTAVYYCAREGDGFDSWGQGTTVTVSS
VL: EIVLTQSPDFQSVTPKEKVTITCSATSSVNYMHWYQQKPDQSPKRLIYDTSRLASGVPSRFSGSGSGTDYTLTINSLEAEDAATYYCQQWNTNPWTFGGGTKVEIK

binding result [1]: binds
B7: Hu6D8-2 (antibody, human IgG4, V domains shown)
VH: EVQLVQSGAEVKKPGASVKVSCKASGYTFTNYGMNWVRQAPGQGLKWMGWINTNTGEPTYADDFKGRVTMTLDTSISTAYMELSRLRSDDTAVYYCAREGDGFDSWGQGTTVTVSS
VL: EIVLTQSPDFQSVTPKEKVTITCSATSSVNYMHWYQQKPDQSPKRWIYDTSRLASGVPSRFSGSGSGTDYTLTINSLEAEDAATYYCQQWNTNPWTFGGGTKVEIK

结合率 [2]: > 85%
Kd [3]: 0.514 nM
koff [3]: 9.69e-05 s⁻¹
kon [3]: 188000 M⁻¹ s⁻¹
Kd [4]: 0.514 nM
koff [4]: 9.69e-05 s⁻¹
kon [4]: 188000 M⁻¹ s⁻¹
Kd [5]: 0.514 nM
koff [5]: 9.69e-05 s⁻¹
kon [5]: 188000 M⁻¹ s⁻¹
Kd [6]: 0.514 nM
koff [6]: 9.69e-05 s⁻¹
kon [6]: 188000 M⁻¹ s⁻¹
B8: 鼠抗人CD27单克隆抗体6D8 (antibody, V domains shown)
VH: QIQLVQSGPELKKPGETVKISCKASGYTFTNYGMNWVKQAPGKGLKWMGWINTNTGEPTYADDFKGRFAFSLETSATTAYLQINNLKNEDTATYFCAREGDGFDSWGQGTTLTVSS
VL: QFVLTQSPAIMSASPGEKVTMTCSATSSVNYMHWYQQKSGTSPKRWIYDTSRLASGVPARFSGSGSGTSYSLTISSMEAEDAATYYCQQWNTNPWTFGGGTKLEIK
notes: it is not clear whether they are whole chains or variable regions only; also called 6D8抗体

binding result [1]: binds
B9: 6D8-G98A (人鼠嵌合抗体) (antibody, V domains shown)
VH: QIQLVQSGPELKKPGETVKISCKASGYTFTNYGMNWVKQAPGKGLKWMGWINTNTGEPTYADDFKGRFAFSLETSATTAYLQINNLKNEDTATYFCAREGDAFDSWGQGTTLTVSS
VL: QFVLTQSPAIMSASPGEKVTMTCSATSSVNYMHWYQQKSGTSPKRWIYDTSRLASGVPARFSGSGSGTSYSLTISSMEAEDAATYYCQQWNTNPWTFGGGTKLEIK

Kd [3]: 0.00185 nM
koff [3]: 2.14e-07 s⁻¹
kon [3]: 116000 M⁻¹ s⁻¹
Kd [7]: 0.00185 nM
koff [7]: 2.14e-07 s⁻¹
kon [7]: 116000 M⁻¹ s⁻¹
Kd [5]: 0.00185 nM
koff [5]: 2.14e-07 s⁻¹
kon [5]: 116000 M⁻¹ s⁻¹
Kd [6]: 0.00185 nM
koff [6]: 2.14e-07 s⁻¹
kon [6]: 116000 M⁻¹ s⁻¹
B10: Varlilumab (antibody, V domains shown)
VH: QVQLVESGGGVVQPGRSLRLSCAASGFTFSSYDMHWVRQAPGKGLEWVAVIWYDGSNKYYADSVKGRFTISRDNSKNTLYLQMNSLRAEDTAVYYCARGSGNWGFFDYWGQGTLVTVSS
VL: DIQMTQSPSSLSASVGDRVTITCRASQGISRWLAWYQQKPEKAPKSLIYAASSLQSGVPSRFSGSGSGTDFTLTISSLQPEDFATYYCQQYNTYPRTFGQGTKVEIKR
